The text below walks through data of patent publication US20210047373A1, “BETA BARREL POLYPEPTIDES AND METHODS FOR THEIR USE” (UNIVERSITY OF WASHINGTON, priority 2018, published 2021).

On the set-up of series [1]: species or system E. coli. An excerpt:
(§1) The sequences of these designs are not related to those of proteins with known structure (BLAST E-values ranged from 0.11 to 1.9 against the non-redundant protein database) and fold into the designed structure in silico (FIG. 2A). Synthetic genes encoding the designs were expressed in E. coli. […] The crystal structure of BB1 solved at 1.6 Å resolution was very close to the design model (within 1.4 Å RMSD over 99 residues of the 109 residues, FIG. 2F-G, deviations from the design are shown in FIG. 10) and had no close structural homolog in the PDB (highest TM-score <0.8). Essentially all of the key features of the design model are found in the crystal structure. The cross-section of the structure resembles the square cavity of the design model, which is not observed in any existing natural β-barrel crystal structures (FIG. 21), and is shaped by the designed glycine kinks. All 7 designed turns and β-bulges are correctly recapitulated in the crystal structure (FIG. 2H,J), along with the 3-10 helix and tryptophan corner (FIG. 2K).
(§2) Protein expression and purification. Genes encoding the nonfunctional β-barrel designs (41 from parametric design and 4 from fragment-base design) were synthesized and cloned into the pET-29 vector (GenScript, Inc). Plasmids were then transformed into BL21*(DE3) E. coli strain (NEB, Inc). […]

Series [2] in a line: Size-exclusion chromatography (SEC, SEC-MALS). Format: physicochemical. The settings on record: oligomeric state.
Text: as §1, §2
(In general: In gel filtration, larger molecules generally elute earlier.)

Series [3] in a line: Circular dichroism, thermal and GuHCl denaturation. Format: physicochemical. The protocol: Circular dichroism (CD). Purified protein samples were prepared at 0.5 mg/ml in 20 mM Tris buffer (150 mM NaCl, pH8.0) or PBS buffer (25 mM phosphate, 150 mM NaCl, pH7.4). Wavelength scans from 195 nm to 260 nm were recorded at 25 degrees Celsius, 75 degrees Celsius, 95 degrees Celsius and cooling back to 25 degrees Celsius. Thermal denaturation was monitored at 220 nm or 226 nm from 25 degrees Celsius to 95 degrees Celsius. Near-UV wavelength scan from 240 nm to 320 nm and tryptophan fluorescence emission were recorded in the absence and presence of 5M guanidinium chloride (GuHCl). Chemical denaturation in GuHCl was monitored by both tryptophan fluorescence and near-UV CD signal at 285 nm. The concentration of the GuHCl stock solution was measured with a refractometer (Spectronic Instruments, Inc). Far-UV CD experiments were performed on an AVIV model 420 CD spectrometer (Aviv Biomedical, Inc). Near-UV CD and tryptophan fluorescence experiments were performed on a Jasco J-1500 CD spectrometer (Jasco, Inc). Protein concentrations were determined by 280 nm absorbance with a NanoDrop™spectrophotometer (ThermoScientific, Inc). Melting temperatures were estimated by smoothing the sparse data with a Savitsky-Golay filter of order 3 and approximating the smoothed data with a cubic spline to compute derivatives. Reported Tm values are the inflection points of the melting curves.
A general note: Circular dichroism is the unequal absorption of left and right circularly polarised light.

Entries after “also recorded” stand apart in the source; their conditions may differ.

B1: BB1: SEQ ID NO 1; nonfunctional de novo β-barrel design, stable monomer (protein)
chain: MVDAAQYFPGTWEFRFRSSDGKEYRGTVEMQPRTPTEIEIRFKGQSSDGRPVEGRGSIEVRSPYEYRFEMQSSDGARWEGTLQVRSPDSVEVRFKSSDGREYSGEFRRQE
modifications: (1)..(1) optionally absent
Consider B1, for which the Solubility entry in series [1] was “yes”. Also, the SEC result in series [2] is reported as “monomer”. The “β CD spectrum” value in series [3] was “yes”. In series [3] (CD), the Thermal stability result was “unchanged at 95 °C; also recorded: stable at 95 degree Celsius; also recorded: does not temperature denature”. Besides, the “Cooperative unfolding transition in guanidine” value in series [3] (near UV CD signal and tryptophan fluorescence) was 2.5 M.
